Measurements reported in US7700353B2, “Compositions and methods for inducing apoptosis in tumor cells” (E-P Therapeutics, Inc., priority 1998, dated 2010).

Columns and labels:
[1] = system: NIH 3T3 cells and caprine mammary epithelium cells (CMEC); settings: recombinant peptides; cited from earlier work
MDA-MB-231(C) = assay: Induction of apoptosis (TUNEL assay); format: cell-based, human; settings: about 1.5 μM, two to three days
Protocol: FIG. 23 depicts induction of apoptosis in MDA-MB-231 cells by rtEA4-peptide. MDA-MB-231 cells were treated wit control protein or rtEa4-peptide (about 1.5 μM) for two days, and three days, and were then subjected to TUNEL assay. (A) Treatment with rtEa4-peptide for two days; (B) Treatment with rtEa-4-peptide for three days.
FIG. 24 depicts the effect of rtEa4-peptide on induction of apoptosis in MDA-MB-231 cells treated with rtEa4-peptide. (A) Detection of apoptosis by TUNEL assay; (B) Detection of apoptosis y detecting the induction of the activated caspase-3 activity. MDA-MB-231 cells were treated with about 1.5 μM of rtEa4-peptide for about 48 hours, fixed and subjected to TUNEL assay or stained with anti-human activated caspase-3 serum conjugated with rhodamine. Hydrogen peroxide (H2O2), 0.5 mM, was used to induce apoptosis as a positive control.

MDA-MB-231 cells = assay: Soft agar colony formation of Ea-4 cDNA transfectants; format: cell-based, human; settings: cells transfected with Ea-4-peptide cDNA (clones E9 and E15)
From the text: Two gene constructs, CMV-IGF-1-sp-Ea-4-cDNA-IRES-EGFP and CMV-IRES-EGFP were used in the transfection studies. The first construct (FIG. 9A) contained Ea-4 peptide cDNA (with a signal peptide sequence derived from hlGF-I), a ribosome re-entry site (IRES) and an enhanced green fluorescence protein (EGFP) marker gene. […] The expression of both gene constructs was driven by a promoter from CMV. Vectors containing the recognized control sequences and marker gene are available from commercial sources (CLONTECH, Palo Alto, Calif.).
(§1) Transfection of the cells was accomplished as follows. MDA-MB-231 cells were cultured in F12/DMEM supplemented with 10% FBS and 10 ng/ml of insulin to 90% confluence. About 5×10^6 cells were harvested and resuspended in 1 mL of serum-free F12/DMEM containing 20 µg of un-linearized constructs. The cells were electroporated in a BRL Cell-Porator using the following settings: low .OMEGA., 1180 micro Faraday (µF) capacitance, and two pulses at 200 volts. Following electroporation, cells were resuspended in 12 mL of fresh growth medium and seeded into a 6-well plate to recover. Permanent transfectants expressing green fluorescence protein (GFP) were enriched in a medium containing neomycin (G418) at 1 mg/mL for ten days and followed with 500 µg/mL for continuous maintenance. […]

[2] = system: MDA-MB-231 and ZR-75-1 cells; assay: Colony formation of hEb cDNA transfectants; format: cell-based, human; settings: cells transfected with hEb cDNA
Protocol: Two gene constructs, CMV-IG F-1-sp-hEb-cDNA-IRES-EGFP and CMV-IRES-EGFP were used in the transfection studies. The first construct (FIG. 9B) contained hEb peptide cDNA (with a signal peptide sequence of hlGF-1), a ribosome re-entry site (IRES) and an enhanced green fluorescence protein (EGFP) marker gene. […] The expression of both gene constructs was driven by a promoter from CMV.
as §1, with “maintenance. Individual green cell clones of transfectants were isolated from the enriched population by the method of serial dilution.” for “maintenance.”

[3] = system: SK-N-F1 neuroblastoma cells; assay: Neurite-like process outgrowth / morphological differentiation; format: cell-based, human
Protocol: Cells under various treatment conditions were maintained at 37° C. in a 5% CO2 incubator and observed from 30 minutes to 72 hours after incubation (synthetic human Ea- and Eb-peptide were chemically synthesized at the Biotechnology Center, University of Connecticut). For treatment with synthetic hEa, hEb peptide or hlGF-I, 1×10^5 cells were plated in each well of a 12-well culture plate in DMEM/F12 (1:1) supplemented with 0.4-3.2 µM of synthetic hEa-, hEb-peptide and/or 5-10 nM of hlGF-I.
Neuroblastoma SK-N-F1 cells (10^5) were seeded into 12-well culture plates in DMEM/F12 (1:1) supplemented with 0-3.2 µM of synthetic hEb-peptide, or buffer control, and incubated at 37° C. in a 5% CO2 humidified incubator.
Cell images were taken by random sampling at various time points using a MicroMAX CCD camera (Princeton Instruments, Bozeman, Mont.). Approximately 1000 cells were analyzed from each treatment, carried out in triplicate. Cells with neurites longer than one cell body diameter (>20 µm for SK-N-F1 cells) were scored as positive neurite-bearing (Fagerstrom, et al., Cell Growth Differ., 7: 775-85, 1996; Morrione, et al., Cancer Res. 60: 2263-72, 2000). The percentage of neurite-bearing cells and the respective length of neurites were measured with reference to a stage micrometer and analyzed using the public domain NIH Image program (developed at the U.S. National Institutes of Health and available on the Internet at http://rsb.info.nih.gov/nih-image).
To further characterize the dose-response relationship and time course of hEb peptide in inducing neurite-like process outgrowth, SK-N-F1 neuroblastoma cells were treated with various amounts (0 to 3.2 µM) of hEb peptide over a course of 72 hours. Images of cells were taken by random sampling after 1 h, 6 h, 24 h, 48 h and 72 h of incubation (see FIG. 11B). The average length of neurite-like process outgrowth was measured by random sampling of more than 1000 cells at various time points. The neurite-like processes started to be visible as early as 0.5-1 hour after the addition of hEb peptide. The effect of hEb peptide in inducing neurite-like outgrowth was dose-dependent, as evident from a comparison of cells treated with 0.4 µM hEb peptide with those treated with 0.8-3.2 µM hEb peptide over 24-72 hours. The maximum effect of hEb peptide was observed 48 hours after the addition of 3.2 µM hEb peptide, with an average neurite length of 50 to 60 µm (Table 1, below).

B1: rtEa-4: recombinant Ea-4 peptide of rainbow trout pro-IGF-I, 74 amino acid residues (SEQ ID NO: 2) (protein)
chain: RSVRAQRHTDMPRTPKVSTAVQNVDRGTERRTAQHPDKTKTKKKPLSGHSHPSCKEVHQKNSSRGNTGGRNYRM
modifications: Oncorhynchus mykiss
In the case of B1, the mitogenic activity [1] is listed as “possess mitogenic activity”, the TUNEL staining (MDA-MB-231(C)) is listed as “TUNEL staining positive” and the colony formation activity (MDA-MB-231 cells) is listed as “abolished”.

B2: hEb: chemically synthesized human Eb peptide of pro-IGF-I, 77 amino acid residues (SEQ ID NO:1) (peptide, listed as Homo sapiens)
chain: RSVRAQRHTDMPKTQKYQPPSTNKNTKSQRRKGWPKTHPGGEQKEGTEASLQIRGKKKEQRREIGSRNAECRGKKGK
In the case of B2, the colony formation activities [2] is reported as “greatly reduced or diminished completely”, the Neurite length ([3]; 0.4 μM, 6 h) is reported as 31 ± 7.6 μm and the Neurite length ([3]; 0.4 μM, 24 h) is reported as 29 ± 5.2 μm. For the same molecule, the Neurite length ([3]; 0.4 μM, 48 h) was 35 ± 0.9 μm, the Neurite length ([3]; 0.4 μM, 72 h) was 32 ± 3.1 μm and the Neurite length ([3]; 0.8 μM, 2 h) was 33 ± 2.1 μm. It also gave a Neurite length ([3]; 0.8 μM, 6 h) of 36 ± 0.6 μm, a Neurite length ([3]; 0.8 μM, 24 h) of 38 ± 3.9 μm and a Neurite length ([3]; 0.8 μM, 48 h) of 43 ± 1.0 μm. For the same molecule, the Neurite length ([3]; 0.8 μM, 72 h) was 41 ± 2.5 μm, the morphological change ([3]; 1.6 μM or 3.2 μM) was “differentiated into a neuron-like morphology” and the Neurite length ([3]; 1.6 μM, 6 h) was 38 ± 3.5 μm. It also gave a Neurite length ([3]; 1.6 μM, 24 h) of 39 ± 1.8 μm, a Neurite length ([3]; 1.6 μM, 48 h) of 47 ± 3.9 μm and a Neurite length ([3]; 1.6 μM, 72 h) of 48 ± 2.8 μm. For the same molecule, the Neurite length ([3]; 3.2 μM, 6 h) was 39 ± 2.2 μm, the Neurite length ([3]; 3.2 μM, 24 h) was 45 ± 1.7 μm and the Neurite length ([3]; 3.2 μM, 48 h) was 52 ± 3.7 μm. The Neurite length ([3]; 3.2 μM, 72 h) was 48 ± 2.7 μm, the “time at which neurite-like processes started to be visible” value ([3]; after addition of peptide) was 0.5 to 1 h and the “increase in the percentage of neurite-bearing cells” value ([3]; hEb-peptide combined with mature hIGF-I, 1-4 hours after stimulation) was 20-30%. For the same molecule, the “in vitro effective concentration” value ([3]; synthetic peptide) was 0.4 to 3.2 µM.
